# Values of other authors in PMC7109197.
# Like-named read-outs stand apart in the source and are kept apart here.
# Key:
# Assay in all cases: NMR
# [1] = molecular target: cardiac troponin C N-domain (Homo sapiens) (UniProt P63316)
# [2] = molecular target: cardiac troponin C N-domain (Homo sapiens) (UniProt P63316); remark: listed apart in the source
# [3] = molecular target: cardiac troponin C CTD (Homo sapiens) (UniProt P63316)
# [4] = molecular target: cardiac troponin C CTD (Homo sapiens) (UniProt P63316); remark: listed apart in the source
Kd [1],Kd [2],Kd [3],Kd [4],Substance
600 µM,370 µM,,,cTnI switch peptide switch peptide (from UniProt P19429)
,,3 µM,< 1 µM,cardiac troponin I 34-71 (from UniProt P19429)
